{"source": "the Human Domainome abundance scans (Beltran et al. 2025)", "parents": {"B1": {"name": "Cytoplasmic polyadenylation element-binding protein 2, residues 513 to 575; numbered along this chain, Q7Z5Q1 (parent)", "chain": "KRVEVKPYVLDDQMCDECQGARCGGKFAPFFCANVTCLQYYCEFCWANIHSRAGREFHKPLVK"}}, "note": "± gives the uncertainty stated by the source."}
{"variants_of": "B1", "assay": "abundance fitness (aPCA) (normalised: wild type 0, dead -1); higher = more abundant; growth selection in yeast, the domain comes from the species named", "conditions": "Homo sapiens"}
{"variant": "KRVEVKPYVYDDQMCDECQGARCGGKFAPFFCANVTCLQYYCEFCWANIHSRAGREFHKPLVK", "abundance fitness": "-0.193 ± 0.12"}
{"variant": "KRVEVKPYVLDDEMCDECQGARCGGKFAPFFCANVTCLQYYCEFCWANIHSRAGREFHKPLVK", "abundance fitness": "-0.358 ± 0.062"}
{"variant": "KRVEVKPYVLDDNMCDECQGARCGGKFAPFFCANVTCLQYYCEFCWANIHSRAGREFHKPLVK", "abundance fitness": "-0.131 ± 0.086"}
{"variant": "KRVEVKPYVLDDQMCDECQGARCGGKFAPFFCANVTCLQYYCEFCWAGIHSRAGREFHKPLVK", "abundance fitness": "0.074 ± 0.059"}
{"variant": "KRVEVKPYVLCDQMCDECQGARCGGKFAPFFCANVTCLQYYCEFCWANIHSRAGREFHKPLVK", "abundance fitness": "-0.205 ± 0.067"}
{"variant": "KRVEVKPYVLDDQMRDECQGARCGGKFAPFFCANVTCLQYYCEFCWANIHSRAGREFHKPLVK", "abundance fitness": "-0.606 ± 0.057"}
{"variant": "KRVEVKPYVLDDQMMDECQGARCGGKFAPFFCANVTCLQYYCEFCWANIHSRAGREFHKPLVK", "abundance fitness": "-0.507 ± 0.069"}
{"variant": "KRVEVKPYVLDDQMADECQGARCGGKFAPFFCANVTCLQYYCEFCWANIHSRAGREFHKPLVK", "abundance fitness": "-0.394 ± 0.062"}
{"variant": "KRVEVPPYVLDDQMCDECQGARCGGKFAPFFCANVTCLQYYCEFCWANIHSRAGREFHKPLVK", "abundance fitness": "-0.102 ± 0.046"}
{"variant": "FRVEVKPYVLDDQMCDECQGARCGGKFAPFFCANVTCLQYYCEFCWANIHSRAGREFHKPLVK", "abundance fitness": "-0.292 ± 0.11"}
{"variant": "KRVEVKPYVLDDQMCDECQGARCGWKFAPFFCANVTCLQYYCEFCWANIHSRAGREFHKPLVK", "abundance fitness": "-0.075 ± 0.053"}
{"variant": "KRVEVKPYVLDDQMCDECQGARCGGKFAPFFCANVTCLQYYCEFCWANIPSRAGREFHKPLVK", "abundance fitness": "-0.81 ± 0.042"}
{"variant": "KRVEVKPYVLDDQMCDECQGARCGGKFAPFFCANVTCLQYYCEFCWANISSRAGREFHKPLVK", "abundance fitness": "-0.723 ± 0.051"}
{"variant": "KRVEVKPYVLDDQMCDECQGARCGGKFAPFFCANTTCLQYYCEFCWANIHSRAGREFHKPLVK", "abundance fitness": "0.033 ± 0.053"}
{"variant": "KRVEVKPYVLDDQMCDECNGARCGGKFAPFFCANVTCLQYYCEFCWANIHSRAGREFHKPLVK", "abundance fitness": "-0.446 ± 0.25"}
{"variant": "KRVEVKPYVLDDQMCDECHGARCGGKFAPFFCANVTCLQYYCEFCWANIHSRAGREFHKPLVK", "abundance fitness": "-0.134 ± 0.096"}
{"variant": "KRVEVKPYVLDDQMCDECQGARCGGKFAPFFCANVTCLQYYCEFCWANIHSRAGREFHIPLVK", "abundance fitness": "-0.3 ± 0.08"}
{"variant": "KRVEVKPYVLDDQMCDECQGARCGGKFAPFFCANVTCLQYYCEFCWANIHSRAGREFHYPLVK", "abundance fitness": "-0.351 ± 0.092"}
{"variant": "KRVEVKPYVLDDQMCDECQGARCGGKFAPFFCANVTCLQYYCEFCWANIHSRAGREFHLPLVK", "abundance fitness": "-0.219 ± 0.05"}
{"variant": "KRVEVKPYVLDDQMCDECQGARCGGKFAPFFCANVTCLQYYCEFCWANIHSRAGREFHGPLVK", "abundance fitness": "-0.255 ± 0.045"}
{"variant": "KRVEVKPYVLDDQMCDECQGARCGGKFAPFFCANVTCLQYYCEFCWANIHSRAGRKFHKPLVK", "abundance fitness": "0.035 ± 0.066"}
{"variant": "KRVEVKPYVLDDQMCDECQGARCGGKFAPFFCANVTCLQYYCEFCWANIHSRAGRHFHKPLVK", "abundance fitness": "-0.158 ± 0.068"}
{"variant": "KRVEVKPYVLDLQMCDECQGARCGGKFAPFFCANVTCLQYYCEFCWANIHSRAGREFHKPLVK", "abundance fitness": "-0.288 ± 0.047"}
{"variant": "KRVEVKPYVLDQQMCDECQGARCGGKFAPFFCANVTCLQYYCEFCWANIHSRAGREFHKPLVK", "abundance fitness": "0.052 ± 0.071"}
{"variant": "KRVEVKPYVLDDQMCDECQGARCGGKFAGFFCANVTCLQYYCEFCWANIHSRAGREFHKPLVK", "abundance fitness": "-0.03 ± 0.041"}
{"variant": "KRVEVKPYVLDDQMCDECQGARCGGKFAPYFCANVTCLQYYCEFCWANIHSRAGREFHKPLVK", "abundance fitness": "0.006 ± 0.075"}
{"variant": "KRVEVKPYVLDDQMCDECQRARCGGKFAPFFCANVTCLQYYCEFCWANIHSRAGREFHKPLVK", "abundance fitness": "-0.522 ± 0.049"}
{"variant": "KRVEVKPYVLDDQMCDECQGARCGGKFAPFFCANVTCLNYYCEFCWANIHSRAGREFHKPLVK", "abundance fitness": "-0.103 ± 0.081"}
{"variant": "KRVEVKPYVLDDQMCDECQGARCGGKFAPFFCANVTHLQYYCEFCWANIHSRAGREFHKPLVK", "abundance fitness": "-0.352 ± 0.29"}
{"variant": "KRVEVKPYVLDDQMCDECQGARCGGKFAPFFCANVTCIQYYCEFCWANIHSRAGREFHKPLVK", "abundance fitness": "-0.115 ± 0.072"}
{"variant": "KRVEVKPYVLDDQMCDECQGARCGGKFAPFFCANVTCKQYYCEFCWANIHSRAGREFHKPLVK", "abundance fitness": "0.202 ± 0.062"}
{"variant": "KRVEVKPYVLDDQMCDECQGARCGGKFAPFFCANVTCLQYYCEFCWANIHSRAGREFYKPLVK", "abundance fitness": "-0.822 ± 0.11"}
{"variant": "KRVEVKPYVLDDQCCDECQGARCGGKFAPFFCANVTCLQYYCEFCWANIHSRAGREFHKPLVK", "abundance fitness": "-0.104 ± 0.072"}
{"variant": "KRVEVKPYVLDDQKCDECQGARCGGKFAPFFCANVTCLQYYCEFCWANIHSRAGREFHKPLVK", "abundance fitness": "0.064 ± 0.057"}
{"variant": "KRVEVKPYVLDDQMCDECQGARCGGKDAPFFCANVTCLQYYCEFCWANIHSRAGREFHKPLVK", "abundance fitness": "-0.125 ± 0.082"}
{"variant": "KRVEVKPYVLDDQMCDECQGARCGGKWAPFFCANVTCLQYYCEFCWANIHSRAGREFHKPLVK", "abundance fitness": "-0.178 ± 0.052"}
{"variant": "KRVEVKPYVLDDQMCDECQGARCGGKNAPFFCANVTCLQYYCEFCWANIHSRAGREFHKPLVK", "abundance fitness": "-0.099 ± 0.089"}
{"variant": "KRVEVKPYVLDDQMCDECQGARCGGKLAPFFCANVTCLQYYCEFCWANIHSRAGREFHKPLVK", "abundance fitness": "-0.015 ± 0.038"}
{"variant": "KRVEVKPYVLDDQMCDECQGARCGGKFAPFFCANVTCLQYYCEFCWANIHVRAGREFHKPLVK", "abundance fitness": "-0.025 ± 0.039"}
{"variant": "KRVEVKPYVLDDQMCDECQGARCGGKFAPFFCANVTCLQYYCEFCWANIHSRAGREFHKVLVK", "abundance fitness": "-0.331 ± 0.049"}
{"variant": "KRVNVKPYVLDDQMCDECQGARCGGKFAPFFCANVTCLQYYCEFCWANIHSRAGREFHKPLVK", "abundance fitness": "-0.15 ± 0.08"}
{"variant": "KRVHVKPYVLDDQMCDECQGARCGGKFAPFFCANVTCLQYYCEFCWANIHSRAGREFHKPLVK", "abundance fitness": "-0.363 ± 0.1"}
{"variant": "KRVCVKPYVLDDQMCDECQGARCGGKFAPFFCANVTCLQYYCEFCWANIHSRAGREFHKPLVK", "abundance fitness": "-0.353 ± 0.073"}
